{"source": "paper PMC2904616", "proteins": {"B1": {"name": "SAV_76 (avermitilol synthase) (Streptomyces avermitilis MA-4680 = NBRC 14893) (protein)", "chain": "MPQDIDFGLPAPAGISPGLEATRRHNLGWVRRLGLVGDGPSLAWYTSWDMPRLAACGFPHARGAALDLCADAMAFFFVFDDQFDGPLGRDPARAARVCRRLTGIVHGAGPGPGADACSAAFADVWARSTDGAHPGWVARTAHEWEYYFAAQAHEAINRLRGTPGDMESYLQVRRGIAGTDLPLSLGERAAGITVPAAAFHSPQLRIMREAAIDVTLMCNDVYSLEKEEARGDMDNLVLVIEHARRCTRDEAVTAARGEVARRVIRFEQLAREVPALCAQLGLSAVERAHVDTYLGVMEAWMSGYHAWQTQTRRYTGAPHVLPSTGPGYFDEVLPT"}}, "substrate": "CC(C)=CCC/C(C)=C/CC/C(C)=C/CO[P@@](=O)(O)OP(=O)(O)O", "experiment": "purified protein", "type": "biochemical, Streptomyces avermitilis", "conditions": "MgCl2; labelled compound ([1-3H]FPP)"}
{"protein": "B1", "values": [{"measurement": "Km", "result": "1.06 ± 0.11", "unit": "µM"}, {"measurement": "kcat", "result": "0.040 ± 0.001", "unit": "s⁻¹"}]}
